From PMC12416549 (2024)
Substitutions are numbered along the chain they refer to. Names may count otherwise. Blank lines part the entries; values can stand above or below the binder they belong to.

Biological target: T1, TNFR1 (Homo sapiens, UniProt P19438)
T1 chain: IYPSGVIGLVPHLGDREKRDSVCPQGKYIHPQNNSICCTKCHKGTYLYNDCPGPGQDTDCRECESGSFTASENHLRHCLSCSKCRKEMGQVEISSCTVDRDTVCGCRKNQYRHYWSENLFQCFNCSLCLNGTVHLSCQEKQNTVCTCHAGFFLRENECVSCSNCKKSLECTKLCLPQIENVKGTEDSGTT
Assay: yeast display SC50

- apparent Kd (screen): 2250 pM
B1: L3W (designed binder)
chain: MTWQELLREEALRRAEAEAFRYALELLAEKFPEQKEYLLDLAEEIESQIRSLSGVDVEDVRKFLDKEWAWVKELLAEHPAELAEVEAARAARLAELRAEVEAKVAA

- apparent Kd (screen): 593 pM
B2: A91N (designed binder)
chain: B1 chain with W3L, A91N

- apparent Kd (screen): 1270 pM
B3: E86K (designed binder)
chain: B1 chain with W3L, E86K

- apparent Kd (screen): 869 pM
B4: K62G (designed binder)
chain: B1 chain with W3L, K62G

- apparent Kd (screen): 869 pM
B5: D59Q (designed binder)
chain: B1 chain with W3L, D59Q

- apparent Kd (screen): 490 pM
B6: A91F (designed binder)
chain: B1 chain with W3L, A91F

- apparent Kd (screen): 2480 pM
B7: V55R (designed binder)
chain: B1 chain with W3L, V55R

- apparent Kd (screen): 15200 pM
B8: L52M (designed binder)
chain: B1 chain with W3L, L52M

- apparent Kd (screen): 1160 pM
B9: K35E (designed binder)
chain: B1 chain with W3L, K35E

- apparent Kd (screen): 2050 pM
B10: L39T (designed binder)
chain: B1 chain with W3L, L39T

- apparent Kd (screen): 869 pM
B11: A83I (designed binder)
chain: B1 chain with W3L, A83I

- apparent Kd (screen): 490 pM
B12: L27K (designed binder)
chain: B1 chain with W3L, L27K

- apparent Kd (screen): 490 pM
B13: A98C (designed binder)
chain: B1 chain with W3L, A98C

- apparent Kd (screen): 539 pM
B14: E29C (designed binder)
chain: B1 chain with W3L, E29C

- apparent Kd (screen): 405 pM
B15: A11C (designed binder)
chain: B1 chain with W3L, A11C

- apparent Kd (screen): 1540 pM
B16: F63I (designed binder)
chain: B1 chain with W3L, F63I

- apparent Kd (screen): 593 pM
B17: L12W (designed binder)
chain: B1 chain with W3L, L12W

- apparent Kd (screen): 1400 pM
B18: L93G (designed binder)
chain: B1 chain with W3L, L93G

- apparent Kd (screen): 490 pM
B19: A102E (designed binder)
chain: B1 chain with W3L, A102E

- apparent Kd (screen): 2730 pM
B20: D56I (designed binder)
chain: B1 chain with W3L, D56I

- apparent Kd (screen): 1690 pM
B21: L52F (designed binder)
chain: B1 chain with W3L, L52F

- apparent Kd (screen): 229 pM
B22: I45P (designed binder)
chain: B1 chain with W3L, I45P

- apparent Kd (screen): 593 pM
B23: L64N (designed binder)
chain: B1 chain with W3L, L64N

- apparent Kd (screen): 718 pM
B24: E86T (designed binder)
chain: B1 chain with W3L, E86T

- apparent Kd (screen): 593 pM
B25: L24C (designed binder)
chain: B1 chain with W3L, L24C

- apparent Kd (screen): 539 pM
B26: E73S (designed binder)
chain: B1 chain with W3L, E73S

- apparent Kd (screen): 593 pM
B27: A91H (designed binder)
chain: B1 chain with W3L, A91H

- apparent Kd (screen): 26900 pM
B28: G54E (designed binder)
chain: B1 chain with W3L, G54E

- apparent Kd (screen): 718 pM
B29: A90C (designed binder)
chain: B1 chain with W3L, A90C

- apparent Kd (screen): 2250 pM
B30: L74S (designed binder)
chain: B1 chain with W3L, L74S

- apparent Kd (screen): 490 pM
B31: E58G (designed binder)
chain: B1 chain with W3L, E58G

- apparent Kd (screen): 1860 pM
B32: H78L (designed binder)
chain: B1 chain with W3L, H78L

- apparent Kd (screen): 869 pM
B33: K103Y (designed binder)
chain: B1 chain with W3L, K103Y

- apparent Kd (screen): 490 pM
B34: V60M (designed binder)
chain: B1 chain with W3L, V60M

- apparent Kd (screen): 490 pM
B35: Q48N (designed binder)
chain: B1 chain with W3L, Q48N

- apparent Kd (screen): 653 pM
B36: A105C (designed binder)
chain: B1 chain with W3L, A105C

- apparent Kd (screen): 446 pM
B37: A90D (designed binder)
chain: B1 chain with W3L, A90D

- apparent Kd (screen): 593 pM
B38: A87N (designed binder)
chain: B1 chain with W3L, A87N

- apparent Kd (screen): 653 pM
B39: M1W (designed binder)
chain: B1 chain with M1W, W3L

- apparent Kd (screen): 1050 pM
B40: V57T (designed binder)
chain: B1 chain with W3L, V57T

- apparent Kd (screen): 18300 pM
B41: L7T (designed binder)
chain: B1 chain with W3L, L7T

- apparent Kd (screen): 790 pM
B42: L96W (designed binder)
chain: B1 chain with W3L, L96W

- apparent Kd (screen): 956 pM
B43: A88V (designed binder)
chain: B1 chain with W3L, A88V
